Experimental data reported in US20110195069A1.

Columns and labels:
[1] = target: factor D/Pighu (pig-human factor D hybrid) (pig; human) (UniProt P00746); experiment: ELISA: wells coated with recombinant factor D protein at 0.5 µg/ml, serially diluted MAb 166-32, HRP goat anti-mouse IgG (Fc), OD450
[2] = target: factor D/VDA (human factor D mutant V113E, D116E, A118P) (human) (UniProt P00746); experiment: as above
[3] = target: human factor D (purified from human serum, or as present in human serum/plasma) (human) (UniProt P00746); experiment: ELISA: wells coated with purified human factor D, serially diluted MAb, HRP goat anti-mouse IgG (Fc), OD450
[4] = target: dog factor D (in dog serum) (dog); experiment: cell-based or functional assay; settings: scale: times less effective than for human factor D
[5] = target: baboon factor D (in baboon serum) (baboon); experiment: cell-based or functional assay
[6] = target: human factor D (purified from human serum, or as present in human serum/plasma) (human) (UniProt P00746); experiment: cell-based or functional assay

- EC50 (read off the curve) [1]: 0.02 µg/mL
- EC50 (read off the curve) [2]: 0.02 µg/mL
- EC50 (read off the curve) [3]: 0.008 µg/mL
Substance: MAb 166-32 (antibody)
- neutralization of dog factor D in hemolytic assays, compared to human factor D [4]: > 10
- inhibition of alternative complement hemolytic activity (rabbit red blood cells) of plasma samples from baboons given 5 mg/kg Mab 166-32, 18 hours after CPB [5]: 79.3%
- alternative pathway hemolytic activity of plasma from extracorporeal circuits of human whole blood (molar ratio MAb : factor D) [6]: 1.5
- inhibition of factor D dependent alternative pathway hemolysis of unsensitized rabbit RBCs (factor D depleted human serum supplemented with purified factor D) [6]: 0.3 µg/mL
- molar ratio (MAb 166-32 to factor D) for inhibition of factor D dependent hemolysis (molar ratio MAb 166-32 : factor D) [6]: 0.5
